Measurements reported in PMC5646249, “Structural Basis of Type 2 Secretion System Engagement between the Inner and Outer Bacterial Membranes” (mBio, 2017).

Biological target: the molecule itself
Test: cryo-EM structure; single-particle cryo-EM of the detergent-solubilised, amphipol-stabilised ~1-MDa XcpQ multimer flash frozen on vitreous ice; Titan Krios, Gatan K2 Summit; 18,000+ particles; 2D class averages and 3D reconstruction under C15 symmetry, 3.6 Å

B1: XcpQ secretin of the Pseudomonas aeruginosa PAO1 type 2 secretion system (natural protein)
chain: ENSGGNAFVPAGNQQEAHWTINLKDADIREFIDQISEITGETFVVDPRVKGQVSVVSKAQLSLSEVYQLFLSVMSTHGFTVVAQGDQARIVPNAEAKTEAGGGQSAPDRLETRVIQVQQSPVSELIPLIRPLVPQYGHLAAVPSANALIISDRSANIARIEDVIRQLDQKGSHDYSVINLRYGWVMDAAEVLNNAMSRGQAKGAAGAQVIADARTNRLIILGPPQARAKLVQLAQSLDTPTARSANTRVIRLRHNDAKTLAETLGQISEGMKNNGGQGGEQTGGGRPSNILIRADESTNALVLLADPDTVNALEDIVRQLDVPRAQVLVEAAIVEISGDIQDAVGVQWAINKGGMGGTKTNFANTGLSIGTLLQSLESNKAPESIPDGAIVGIGSSSFGALVTALSANTKSNLLSTPSLLTLDNQKAEILVGQNVPFQTGSYTTNSEGSSNPFTTVERKDIGVSLKVTPHINDGAALRLEIEQEISALLPNAQQRNNTDLITSKRSIKSTILAENGQVIVIGGLIQDDVSQAESKVPLLGDIPLLGRLFRSTKDTHTKRNLMVFLRPTVVRDSAGLAALSGKKYSDIRVIDGTRGPEGRPSILPTNANQLFDGQAVDLRELMTE
notes: XcpQ, the secretin of the ancestral T2SS of Pseudomonas aeruginosa PAO1; four N domains (N0-N3), secretin domain (Pfam PF00263), S domain; numbers count on: the mature protein; N0 domains not seen and N1 domains poorly resolved in the map, though part of the purified protein; also called XcpQ secretin complex; XcpQ multimer; copies: 15
- stoichiometry N: 15
